Results as given in article PMC4147282, “Aromatic Amino Acid Mutagenesis at the Substrate Binding Pocket of Yarrowia lipolytica Lipase Lip2 Affects Its Activity and Thermostability” (The Scientific World Journal, 2014).

Substrate: CCCCCCCCCCCCCCCC(=O)Oc1ccc([N+](=O)[O-])cc1
Test: purified protein
Type: biochemical, Yarrowia lipolytica
Details: 50 mmol PBS, pH 8.0, 40°C, substrate 0.2–1 mmol

B1: YLLip2 (lipase2 from Yarrowia lipolytica) (Yarrowia lipolytica) (protein)
chain: VYTSTETSHIDQESYNFFEKYARLANIGYCVGPGTKIFKPFNCGLQCAHFPNVELIEEFHDPRLIFDVSGYLAVDHASKQIYLVIRGTHSLEDVITDIRIMQAPLTNFDLAANISSTATCDDCLVHNGFIQSYNNTYNQIGPKLDSVIEQYPDYQIAVTGHSLGGAAALLFGINLKVNGHDPLVVTLGQPIVGNAGFANWVDKLFFGQENPDVSKVSKDRKLYRITHRGDIVPQVPFWDGYQHCSGEVFIDWPLIHPPLSNVVMCQGQSNKQCSAGNTLLQQVNVIGNHLQYFVTEGVCGI
notes: mature YLLip2, own prepro replaced by XPR2pre secretion signal, N-terminal 6xHis tag kept (HHHHHH-VYTST...); secreted from Y. lipolytica JMY1212 (plasmid pYL-H6-mYLLip2); IMAC purified; approx. 38 kDa on SDS-PAGE
kcat: 157 ± 1 s⁻¹
